Results reported in US7973137.
Several values for one entry are separate records, joined by “and”; a condition that tells them apart may be missing. Equal entries are not always repeated. One block for each substance: values may come before it.

Legend:
[1] = target: dEV-8-loaded H-2 K^bm3 on T2 K^bm3 cells (murine); experiment: cell-based or functional assay
[2] = target: SIY-loaded H-2 K^b on T2 K^b cells (murine) (UniProt P01901); experiment: cell-based or functional assay
[3] = target: SIY-loaded H-2 K^bm3 on T2 K^bm3 cells (murine); experiment: cell-based or functional assay
[4] = target: p2Ca-loaded H-2 L^d (murine) (UniProt P01897); experiment: cell-based or functional assay
[5] = target: H-2 L^d on RENCA cells, naturally loaded (murine) (UniProt P01897); experiment: flow cytometry on RENCA cells cultured with 5-50 units/ml γ-IFN
[6] = target: unloaded H-2 L^d on RMA-S L^d cells (no peptide added) (murine) (UniProt P01897); experiment: direct flow cytometry on RMA-S L^d cells without added peptide
[7] = target: SIY-loaded H-2 K^bm3 on T2 K^bm3 cells (murine); experiment: flow cytometry on peptide-loaded T2 K^bm3 cells
[8] = target: QL9-loaded H-2 L^d (murine) (UniProt P01897); experiment: direct flow cytometry on peptide-loaded RMA-S L^d cells, serial dilutions, detected with H57-FITC
[9] = target: QL9-loaded H-2 L^d (murine) (UniProt P01897); experiment: direct flow cytometry on peptide-loaded RMAS-L^d cells
[10] = target: p2Ca-loaded H-2 L^d (murine) (UniProt P01897); experiment: flow cytometry on cells loaded with a titration of peptide; lower end of the titration
[11] = target: QL9-loaded H-2 L^d (murine) (UniProt P01897); experiment: as above
[12] = target: p2Ca-loaded H-2 L^d (murine) (UniProt P01897); experiment: flow cytometry on cells loaded with a titration of peptide; upper end of the titration

2C TCR on 2C CTL, sequence (A2KF29 whole entry): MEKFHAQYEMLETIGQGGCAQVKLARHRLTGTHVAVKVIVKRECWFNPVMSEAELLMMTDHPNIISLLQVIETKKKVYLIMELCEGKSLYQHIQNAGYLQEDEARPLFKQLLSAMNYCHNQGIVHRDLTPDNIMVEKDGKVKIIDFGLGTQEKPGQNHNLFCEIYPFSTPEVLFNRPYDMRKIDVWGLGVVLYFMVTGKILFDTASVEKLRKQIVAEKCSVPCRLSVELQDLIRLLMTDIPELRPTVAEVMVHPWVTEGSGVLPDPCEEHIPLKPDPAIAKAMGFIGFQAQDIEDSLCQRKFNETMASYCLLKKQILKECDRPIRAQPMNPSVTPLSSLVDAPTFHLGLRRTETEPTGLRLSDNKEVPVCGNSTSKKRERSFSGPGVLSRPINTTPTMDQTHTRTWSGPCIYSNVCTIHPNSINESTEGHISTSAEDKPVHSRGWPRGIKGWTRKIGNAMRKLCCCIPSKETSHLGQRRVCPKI
soluble divalent 2C TCR/Ig, sequence (A2KF29 whole entry, looked up, tested part not stated): as the sequence (A2KF29 whole entry) above
SIY-loaded H-2 K^b on T2 K^b cells (murine), sequence (P01901 22-369): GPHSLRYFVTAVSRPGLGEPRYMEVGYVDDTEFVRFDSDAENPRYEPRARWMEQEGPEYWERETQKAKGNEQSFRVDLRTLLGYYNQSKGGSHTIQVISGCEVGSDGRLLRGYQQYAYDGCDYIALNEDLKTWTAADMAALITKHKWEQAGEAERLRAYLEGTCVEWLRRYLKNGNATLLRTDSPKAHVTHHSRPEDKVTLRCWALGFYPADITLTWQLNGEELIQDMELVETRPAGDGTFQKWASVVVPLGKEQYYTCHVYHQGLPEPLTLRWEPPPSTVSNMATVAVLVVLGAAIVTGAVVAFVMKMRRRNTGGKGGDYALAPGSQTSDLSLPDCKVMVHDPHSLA
unloaded H-2 L^d on RMA-S L^d cells (no peptide added) (murine), sequence (P01897 25-309): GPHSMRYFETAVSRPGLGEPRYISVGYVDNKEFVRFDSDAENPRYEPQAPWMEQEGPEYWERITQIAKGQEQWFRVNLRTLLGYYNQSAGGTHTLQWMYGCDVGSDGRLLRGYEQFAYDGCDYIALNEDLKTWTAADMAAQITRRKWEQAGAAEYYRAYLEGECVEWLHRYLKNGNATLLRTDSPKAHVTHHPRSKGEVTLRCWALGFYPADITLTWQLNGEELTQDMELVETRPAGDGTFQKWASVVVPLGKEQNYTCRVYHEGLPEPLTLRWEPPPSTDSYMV

Substance: 2C TCR on 2C CTL (from UniProt A2KF29)
2C CTL mediated lysis of peptide-loaded T2 cells (51Cr release), LD50 of the peptide [1]: 0.5 ng/mL and 1 ng/mL
2C CTL mediated lysis of peptide-loaded T2 cells (51Cr release), LD50 of the peptide [2]: 10 ng/mL
2C CTL mediated lysis of peptide-loaded T2 cells (51Cr release), LD50 of the peptide [3]: 100 ng/mL
2C CTL mediated lysis of p2Ca-loaded T2 L^d cells (51Cr release), LD50 of the peptide [4]: 0.5 ng/mL

fold increase of serologically reactive H-2 L^d on γ-IFN treated cells over untreated cells [5]: 5 to 6 fold
fold increase of mean channel fluorescence (cells at 27° C. against cells at 37° C.) [6]: 5 fold
Substance: mAb 30.5.7 (antibody)

MCF [7]: 36 MCF
concentration at which binding was detected [8]: < 1 nM
MCF [9]: 3000 MCF
MCF [10]: 1 MCF
MCF [11]: 1 MCF
MCF [12]: 600 MCF
Substance: soluble divalent 2C TCR/Ig (from UniProt A2KF29)
